Kd data for one molecule are collected here from PMC7849366 (Genes & Development, 2021).

This assay has as its target full-length recombinant MYC-KEAP1 (human, UniProt Q14145 1-624). Briefly: pull-down.

full-length recombinant MYC-KEAP1, sequence (Q14145 whole entry): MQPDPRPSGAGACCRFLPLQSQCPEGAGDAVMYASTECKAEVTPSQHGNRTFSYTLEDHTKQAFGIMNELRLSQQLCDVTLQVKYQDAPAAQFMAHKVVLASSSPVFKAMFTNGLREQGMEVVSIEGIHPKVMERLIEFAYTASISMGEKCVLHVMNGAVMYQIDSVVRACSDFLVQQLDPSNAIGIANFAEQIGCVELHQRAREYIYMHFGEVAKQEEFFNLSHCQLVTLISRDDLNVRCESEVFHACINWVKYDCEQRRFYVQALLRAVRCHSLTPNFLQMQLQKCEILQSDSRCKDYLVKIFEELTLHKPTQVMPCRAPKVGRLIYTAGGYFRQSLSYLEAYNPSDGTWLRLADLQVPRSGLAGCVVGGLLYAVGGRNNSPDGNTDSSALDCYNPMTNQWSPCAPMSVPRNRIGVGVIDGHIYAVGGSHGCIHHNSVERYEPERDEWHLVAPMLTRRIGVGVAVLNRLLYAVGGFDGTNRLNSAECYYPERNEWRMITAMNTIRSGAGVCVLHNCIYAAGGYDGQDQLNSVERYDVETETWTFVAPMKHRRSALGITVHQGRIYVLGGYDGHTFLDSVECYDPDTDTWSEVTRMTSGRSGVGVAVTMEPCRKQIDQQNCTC

B1: full-length recombinant GST-ATDC (natural protein)
chain: MEAADASRSNGSSPEARDARSPSGPSGSLENGTKADGKDAKTTNGHGGEAAEGKSLGSALKPGEGRSALFAGNEWRRPIIQFVESGDDKNSNYFSMDSMEGKRSPYAGLQLGAAKKPPVTFAEKGELRKSIFSESRKPTVSIMEPGETRRNSYPRADTGLFSRSKSGSEEVLCDSCIGNKQKAVKSCLVCQASFCELHLKPHLEGAAFRDHQLLEPIRDFEARKCPVHGKTMELFCQTDQTCICYLCMFQEHKNHSTVTVEEAKAEKETELSLQKEQLQLKIIEIEDEAEKWQKEKDRIKSFTTNEKAILEQNFRDLVRDLEKQKEEVRAALEQREQDAVDQVKVIMDALDERAKVLHEDKQTREQLHSISDSVLFLQEFGALMSNYSLPPPLPTYHVLLEGEGLGQSLGNFKDDLLNVCMRHVEKMCKADLSRNFIERNHMENGGDHRYVNNYTNSFGGEWSAPDTMKRYSMYLTPKGGVRTSYQPSSPGRFTKETTQKNFNNLYGTKGNYTSRVWEYSSSIQNSDNDLPVVQGSSSFSLKGYPSLMRSQSPKAQPQTWKSGKQTMLSHYRPFYVNKGNGIGSNEAP
Broadly, the Kd is the free concentration of one partner at which half of the binding sites on the other are occupied at equilibrium, for simple one-to-one binding. Turning to B1, the Kd was found to be 2.87 nM.
